tested on: Escherichia coli TOP10; test: shrunken log2 fold change of peptide-encoding DNA abundance (4.5 h post-induction vs induction); higher = less antimicrobial activity (less host growth inhibition); details: time post-induction: 4.5 h; library: site-saturation at positions 5, 18, 19, 20
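Further: peptides expressed intracellularly from a pBAD plasmid library in pooled LB shake-flask culture, induced with 0.3% L-arabinose, DNA abundance read by NGS, three biological replicates, DESeq2 with apeglm shrinkage.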

Row | Sequence | shrunken log2 fold change
1 | RRIRWRPPRLPRPRPRPREWPRP | 1.22
2 | RRIRGRPPRLPRPRPRPAGMPRP | 0.737
3 | RRIRGRPPRLPRPRPRPNWGPRP | 0.44
4 | RRIRARPPRLPRPRPRPCWYPRP | -0.16
5 | RRIRIRPPRLPRPRPRPKNVPRP | -0.139
6 | RRIRPRPPRLPRPRPRPDSTPRP | -0.679
7 | RRIRFRPPRLPRPRPRPSYRPRP | -0.783
8 | RRIRLRPPRLPRPRPRPHGGPRP | -0.234
9 | RRIRFRPPRLPRPRPRPPWFPRP | 0.033
10 | RRIRTRPPRLPRPRPRPLGPPRP | 0.114
11 | RRIRNRPPRLPRPRPRPFLTPRP | -0.505
12 | RRIRERPPRLPRPRPRPRITPRP | -0.578
13 | RRIRCRPPRLPRPRPRPWYAPRP | -0.529
14 | RRIRIRPPRLPRPRPRPREEPRP | 0.0171
15 | RRIRLRPPRLPRPRPRPMQEPRP | 0.244
16 | RRIRTRPPRLPRPRPRPWRMPRP | -0.139
17 | RRIRYRPPRLPRPRPRPLMNPRP | -0.217
18 | RRIRQRPPRLPRPRPRPTHVPRP | -0.0938
19 | RRIRPRPPRLPRPRPRPDAMPRP | 0.319
20 | RRIRTRPPRLPRPRPRPRKTPRP | 0.111
21 | RRIRSRPPRLPRPRPRPIELPRP | -0.122
22 | RRIRKRPPRLPRPRPRPMWFPRP | 0.0615

Row | Sequence | shrunken log2 fold change
23 | RRIRMRPPRLPRPRPRPAAEPRP | 2.71
24 | RRIRMRPPRLPRPRPRPNIFPRP | -0.0848
25 | RRIRLRPPRLPRPRPRPCWVPRP | -0.00196
26 | RRIRTRPPRLPRPRPRPTCAPRP | 0.175
27 | RRIRVRPPRLPRPRPRPPAAPRP | 0.397
28 | RRIRTRPPRLPRPRPRPLMPPRP | 0.0315
29 | RRIRIRPPRLPRPRPRPCQVPRP | -0.0176
30 | RRIRHRPPRLPRPRPRPKVQPRP | 0.146
31 | RRIRQRPPRLPRPRPRPHFMPRP | -0.0158
32 | RRIRYRPPRLPRPRPRPAFAPRP | -0.0121
33 | RRIRIRPPRLPRPRPRPSRMPRP | -0.271
34 | RRIRTRPPRLPRPRPRPEQIPRP | 0.126
35 | RRIRNRPPRLPRPRPRPYPEPRP | -1.11
36 | RRIRVRPPRLPRPRPRPDLEPRP | -0.0782
37 | RRIRHRPPRLPRPRPRPKNKPRP | -0.521
38 | RRIRPRPPRLPRPRPRPHAWPRP | 0.189
39 | RRIRVRPPRLPRPRPRPFNMPRP | -0.19
40 | RRIRQRPPRLPRPRPRPNHQPRP | -0.0841
41 | RRIRFRPPRLPRPRPRPQSRPRP | 0.0257
42 | RRIRQRPPRLPRPRPRPSCTPRP | -0.167
43 | RRIRDRPPRLPRPRPRPQYVPRP | -0.229
44 | RRIRCRPPRLPRPRPRPCHFPRP | -0.273

Row | Sequence | shrunken log2 fold change
45 | RRIRARPPRLPRPRPRPPVQPRP | 0.227
46 | RRIRDRPPRLPRPRPRPNPAPRP | 0.0831
47 | RRIRVRPPRLPRPRPRPWFCPRP | -0.299
48 | RRIRTRPPRLPRPRPRPVDDPRP | -0.018
49 | RRIRCRPPRLPRPRPRPGISPRP | -0.195
50 | RRIRKRPPRLPRPRPRPQCPPRP | -0.000549
51 | RRIRGRPPRLPRPRPRPGEIPRP | 0.727
52 | RRIRHRPPRLPRPRPRPFLRPRP | -0.173
53 | RRIRCRPPRLPRPRPRPPMCPRP | -0.23
54 | RRIRCRPPRLPRPRPRPVLCPRP | -0.112
55 | RRIRHRPPRLPRPRPRPNDEPRP | -0.0904
56 | RRIRTRPPRLPRPRPRPSIGPRP | -0.272
57 | RRIRLRPPRLPRPRPRPQIWPRP | -0.166
58 | RRIRWRPPRLPRPRPRPAKVPRP | -0.177
59 | RRIRLRPPRLPRPRPRPGATPRP | 0.527
60 | RRIRCRPPRLPRPRPRPEPQPRP | 0.468
61 | RRIRSRPPRLPRPRPRPFMAPRP | -0.497
62 | RRIRSRPPRLPRPRPRPVDSPRP | -0.0776
63 | RRIRMRPPRLPRPRPRPHPYPRP | 0.168
64 | RRIRPRPPRLPRPRPRPDFVPRP | -0.107
65 | RRIRERPPRLPRPRPRPFIMPRP | -0.0895
66 | RRIRRRPPRLPRPRPRPSATPRP | 0.756

Row | Sequence | shrunken log2 fold change
67 | RRIRSRPPRLPRPRPRPHCRPRP | -0.172
68 | RRIRWRPPRLPRPRPRPECAPRP | 0.852
69 | RRIRDRPPRLPRPRPRPLLLPRP | 0.468
70 | RRIRERPPRLPRPRPRPRLLPRP | -0.335
71 | RRIRPRPPRLPRPRPRPKNPPRP | 0.0941
72 | RRIRSRPPRLPRPRPRPIQQPRP | -0.0226
73 | RRIRPRPPRLPRPRPRPNGTPRP | 0.247
74 | RRIRCRPPRLPRPRPRPSWTPRP | -0.532
75 | RRIRTRPPRLPRPRPRPRDPPRP | 0.047
76 | RRIRNRPPRLPRPRPRPSASPRP | -0.2
77 | RRIRSRPPRLPRPRPRPHALPRP | 0.0303
78 | RRIRQRPPRLPRPRPRPEAPPRP | 0.6
79 | RRIRSRPPRLPRPRPRPVGSPRP | 0.304
80 | RRIRNRPPRLPRPRPRPIEPPRP | -0.00208
81 | RRIRFRPPRLPRPRPRPKAPPRP | 0.453
82 | RRIRMRPPRLPRPRPRPANIPRP | -0.0889
83 | RRIRHRPPRLPRPRPRPMFMPRP | -0.256
84 | RRIRTRPPRLPRPRPRPCWHPRP | -0.119
85 | RRIRKRPPRLPRPRPRPSHWPRP | 0.275
86 | RRIRHRPPRLPRPRPRPENMPRP | -0.042
87 | RRIRHRPPRLPRPRPRPLRRPRP | 0.3
88 | RRIRPRPPRLPRPRPRPMGWPRP | 0.217

Row | Sequence | shrunken log2 fold change
89 | RRIRKRPPRLPRPRPRPQWPPRP | 0.124
90 | RRIRPRPPRLPRPRPRPFHCPRP | -0.297
91 | RRIRERPPRLPRPRPRPTTRPRP | 0.0679
92 | RRIRIRPPRLPRPRPRPDIEPRP | -0.185
93 | RRIRWRPPRLPRPRPRPCKLPRP | -0.694
94 | RRIRGRPPRLPRPRPRPSAQPRP | 1.26
95 | RRIRGRPPRLPRPRPRPVLRPRP | 0.656
96 | RRIRHRPPRLPRPRPRPGTNPRP | -0.212
97 | RRIRSRPPRLPRPRPRPCLPPRP | -0.133
98 | RRIRGRPPRLPRPRPRPGSIPRP | 0.185
99 | RRIRFRPPRLPRPRPRPSCQPRP | -0.245
100 | RRIRKRPPRLPRPRPRPVRYPRP | 0.152
101 | RRIRDRPPRLPRPRPRPVCPPRP | -0.153
102 | RRIRCRPPRLPRPRPRPFDLPRP | -0.0696
103 | RRIRGRPPRLPRPRPRPLNDPRP | 0.388
104 | RRIRNRPPRLPRPRPRPHFCPRP | -0.144
105 | RRIRDRPPRLPRPRPRPCIKPRP | 0.0183
106 | RRIRNRPPRLPRPRPRPRIRPRP | -0.0657
107 | RRIRDRPPRLPRPRPRPKLLPRP | 0.0314
108 | RRIRFRPPRLPRPRPRPYIAPRP | -1.11
109 | RRIRVRPPRLPRPRPRPSWSPRP | 0.0478

From the supplement of paper PMC9112550, “Optimization of the antimicrobial peptide Bac7 by deep mutational scanning” (BMC Biology, 2022)
